Measurements from US20230159643A1.

Target: Sortilin SORTECD_HIS (human) (UniProt Q99523)
Experiment: HTRF: displacement of PGRN binding to His-tagged Sortilin ECD

Sequence of Sortilin SORTECD_HIS (human) (Q99523 other isoform, or with tags, fused parts or gaps limits assumed): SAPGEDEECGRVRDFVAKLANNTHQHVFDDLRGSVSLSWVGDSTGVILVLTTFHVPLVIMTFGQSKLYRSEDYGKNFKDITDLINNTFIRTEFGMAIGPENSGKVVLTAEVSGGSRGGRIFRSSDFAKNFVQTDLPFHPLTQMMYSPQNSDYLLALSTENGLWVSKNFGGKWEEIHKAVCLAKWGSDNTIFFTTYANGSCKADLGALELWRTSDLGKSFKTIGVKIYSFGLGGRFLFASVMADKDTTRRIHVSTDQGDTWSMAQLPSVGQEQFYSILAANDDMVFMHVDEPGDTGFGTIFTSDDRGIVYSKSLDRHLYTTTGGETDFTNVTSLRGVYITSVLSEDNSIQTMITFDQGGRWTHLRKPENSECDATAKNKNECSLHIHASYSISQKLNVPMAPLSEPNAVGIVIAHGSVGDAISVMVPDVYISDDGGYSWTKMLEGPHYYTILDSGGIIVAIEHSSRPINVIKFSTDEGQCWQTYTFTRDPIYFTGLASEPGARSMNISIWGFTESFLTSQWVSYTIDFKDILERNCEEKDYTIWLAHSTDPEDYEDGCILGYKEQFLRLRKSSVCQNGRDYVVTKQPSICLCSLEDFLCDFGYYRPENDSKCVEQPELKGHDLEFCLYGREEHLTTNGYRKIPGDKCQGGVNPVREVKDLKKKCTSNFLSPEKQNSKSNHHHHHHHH

IgG1-b12 (antibody)
IC50: > 1000 nM
